Source: patent publication US20060134122A1, “Peptides of syndecan-1 for inhibition of cancer” (priority 2004, published 2006)

System: MCF-7 human carcinoma cells
Assay: Cell spreading assay, MCF-7
Format: cell-based
Settings: 10 μg/mL VN, 2 h; LM609 30 μg/mL; mAb 13 25 μg/mL; GST-mS1ED 20 μM
Protocol: FIG. 3—MDA-MB-435, but not MCF-7, human carcinoma cells display functional coupling of Sdc-1 and αvβ3 integrins on VN. Depicted are phalloidin-stained cells 2 h after plating on wells coated with 10 μg/mL VN (upper half) or FN (lower half) in plating medium alone or medium containing either 30 μg/mL mAb LM609, 25 μg/mL mAb 13, 20 μM GST-mS1ED or -mS4ED. Bar, 50 μm.
MDA-MB-435, but not MCF-7, human carcinoma cells display functional coupling of Sdc-1 and αvβ3 integrin on VN. To test whether activation of αvβ3 integrin activation on matrix is also functionally coupled to Sdc-1, MDA-MB-435 and MCF-7 cells were plated on either VN or FN (FIG. 3). MDA-MB-435 cells spread on VN and require αvβ3 integrins for this activity as spreading is blocked by mAb LM609. Although the MCF-7 cells spread on VN, this spreading is unaffected by LM609; these cells rely instead on αvβ1 integrins as spreading is blocked by either mAb 13 (FIG. 3) or αv-specific mAb M9 (unpublished data; de Vries et al., 1986). Neither cell type utilizes αvβ3 to respond to FN, rather both utilize […] that are blocked by either mAb 13 (FIG. 3) or mAb 16 (unpublished data).
To test whether GST-mS1ED specifically blocks αvβ3 integrin-dependent spreading or acts as a general inhibitor to all αv integrin heterodimers, MDA-MB-435 and MCF-7 cells were plated on VN in the presence of 20 μM GST-mS1ED. […]

B1: GST-mS1ED: recombinant mouse syndecan-1 ectodomain expressed as a fusion protein with GST (protein)
chain: QIVAVNVPPEDQDGSGDDSDNFSGSGTGALPDTLSRQTPSTWKDVWLLTATPTAPEPTSSNTETAFTSVLPAGEKPEEGEPVLHVEAEPGFTARDKEKEVTTRPRETVQLPITQRASTVRVTTAQAAVTSHPHGGMQPGLHETSAPTAPGQPDHQPPRVEGGGTSVIKEVVEDGTANQLPAGEGSGEQDFTFETSGENTAVAAVEPGLRNQPPVDEGATGASQSLLDRKEVLG
modifications: left off: a dimerising Fc or GST
notes: recombinant mouse syndecan-1 ectodomain expressed as a fusion protein with GST
- cell spreading on VN: Only the MDA-MB-435 cells fail to spread
